Experiments:
[1] = molecular target: T1, HLA-A*0201 HLA class I MHC monomer (iTopia Epitope Discovery System, coated on plate) (human); assay: overall rank from iTopia EDS and CEM T2 assays on HLA-A*0201
T1 construct: Placeholder peptide stripped; also called HLA-A2; MHC class I monomer

[2] = molecular target: T1, HLA-A*0201 HLA class I MHC monomer …; assay: iTopia EDS affinity assay; peptide titration (ED50)
[3] = molecular target: T1, HLA-A*0201 HLA class I MHC monomer …; assay: iTopia EDS multiparametric score (binding, off-rate, affinity)
Excerpt: (§1) Microtiter 96 well plates containing HLA class I MHC monomer loaded with the human β2-microglobulin and a “placeholder” peptide were used to evaluate peptide binding, affinity, and off-rate.
The iTopia system software was used to include, binding, off-rate (T1/2 value) and affinity (ED50 value) data collected for each peptide, in a multiparametric score called iScore.

[4] = molecular target: T1, HLA-A*0201 HLA class I MHC monomer …; assay: iTopia EDS affinity assay; peptide titration, printed as Affinity (ED50)
[5] = molecular target: T1, HLA-A*0201 HLA class I MHC monomer …; assay: iTopia EDS off-rate assay
Description: (§2) This assay evaluates the dissociation rate of “binder” peptides as a function of time.
The relative stability of each complex was evaluated for a period of 8 h as described in material and methods. Off-rate stability was determined by measuring the dissociation time of the complex (t1/2).

[6] = molecular target: T2, HLA-A*0201 on the CEM.T2 cell line (T2) (human); assay: T2 cell dissociation assay with Brefeldin A, flow cytometry
T2 construct: whole, on cells
Description: (§3) After 3 washes, cells were fixed in PBS supplemented with 2% paraformaldehyde and analyzed by FACS (FACScan, BD Bioscience). The percentage of peptide binding was calculated as follows:
(§4) After 3 washes, T2 cells were incubated for 3 h in serum-free RPMI at 37° C. Binding was then measured by FACS and after 4 h incubation. Percentage of Residual Binding (% RB) was calculated as follows:

[7] = molecular target: T1, HLA-A*0201 HLA class I MHC monomer …; assay: iTopia EDS peptide binding assay on plate-coated MHC monomer; % of positive control peptide
[8] = molecular target: T2, HLA-A*0201 on the CEM.T2 cell line (T2); assay: T2 cell HLA-A*0201 stabilization and dissociation, flow cytometry
Description: as §3, §4

[9] = molecular target: T2, HLA-A*0201 on the CEM.T2 cell line (T2); assay: T2 cell HLA-A*0201 stabilization, 100 µM peptide, flow cytometry; % of HBV positive control
Description: as §3

[10] = molecular target: T1, HLA-A*0201 HLA class I MHC monomer …; assay: iTopia EDS off-rate assay at 37 C; time to 50% complex dissociation
Excerpt: as §1, §2

Row | Binder | RANK F-Score [1] | EC50 [2] [nM] | iScore [3] | EC50 [4] [nM] | t1/2 [5] [h] | CEM.T2 % Residual Binding [6] [%] | % Binding [7] [%] | binding score [8] | CEM.T2 % Binding [9] [%] | T½ Value [10] [h]
1 | KVAELVHFL (Control peptide from the literature, tested here) [reference peptide 515 (MAGE-A3), KVAELVHFL] | 10 |  |  |  |  |  |  |  |  | 
2 | ALLHSKYGL (Synthetic nonapeptide of human nectin4; the range counts on nectin4; also called Pep N° 80) [Nectin4 peptide 80 (ALLHSKYGL)] | 4 | ~100 | 0.815 | 1000 | > 6 | 86 | 87 | > 50 % of positive control | 53 | 7.8
3 | FLAEASVRG (Synthetic nonapeptide of human nectin4; the range counts on nectin4) [Nectin4 peptide 244 (FLAEASVRG)] |  |  | 0.533 | 700 |  | 0 | 78 |  | 12 | 2.8
4 | LLFCLLVVV (Synthetic nonapeptide of human nectin4; the range counts on nectin4) [Nectin4 peptide 359 (LLFCLLVVV)] |  |  | 0.674 | 500 |  | 23 | 67 |  | 7 | 7.4
5 | VLVPPLPSL (Synthetic nonapeptide of human nectin4; the range counts on nectin4) [antigen peptide N4-145 (VLVPPLPSL)] | 6 | ~100 | 0.783 | 500 | > 6 | 54 | 67 | > 50 % of positive control | 76 | 7.4
6 | GLYDGMEHL (Control peptide from the literature, tested here) [reference peptide 517 (MAGE-A10), GLYDGMEHL] | 8 |  |  |  |  |  |  |  |  | 
7 | SASVVVVGV (Synthetic nonapeptide of human nectin4; the range counts on nectin4) [Nectin4 peptide 347 (SASVVVVGV)] |  |  | 0.708 | 200 |  | 0 | 64 |  | 40 | 3.7
8 | ILHVSFLAE (Synthetic nonapeptide of human nectin4; the range counts on nectin4) [Nectin4 peptide 239 (ILHVSFLAE)] |  |  | 0.51 | 200 |  | 0 | 61 |  | 10 | 2.3
9 | AALLFCLLV (Synthetic nonapeptide of human nectin4; the range counts on nectin4) [Nectin4 peptide 357 (AALLFCLLV)] |  |  | 0.619 | 100 |  | 18 | 56 |  | 15 | 3.8
10 | LVSASVVVV (Synthetic nonapeptide of human nectin4; the range counts on nectin4) [Nectin4 peptide 345 (LVSASVVVV)] |  |  | 0.626 | 60 |  | 0 | 51 |  | 11 | 2.3
11 | YMDGTMSQV (Control peptide from the literature, tested here; also called tyrosinase peptide) [reference peptide 519 (Tyrosinase), YMDGTMSQV] | 3 |  |  |  |  |  |  |  |  | 
12 | FQARLRLRV (Synthetic nonapeptide of human nectin4; the range counts on nectin4) [Nectin4 peptide 137 (FQARLRLRV)] |  |  | 0.66 |  |  | 72 | 69 |  | 30 | 7.3
13 | LLASFTGRC (Synthetic nonapeptide of human nectin4; the range counts on nectin4; also called Pep N° 21) [Nectin4 peptide 21 (LLASFTGRC)] | 11 | ~100 | 0.727 | 600 | > 6 | 86 | 91 |  | 44 | 6
14 | LLLLASFTG (Synthetic nonapeptide of human nectin4; the range counts on nectin4) [Nectin4 peptide 19 (LLLLASFTG)] |  |  | 0.659 | 60 |  | 0 | 75 |  | 17 | 2.1
15 | VIAALLFCL (Synthetic nonapeptide of human nectin4; the range counts on nectin4) [Nectin4 peptide 355 (VIAALLFCL)] |  |  | 0.888 | 30 |  | 24 | 59 |  | 18 | 5.2
16 | AVTSEFHLV (Synthetic nonapeptide of human nectin4; the range counts on nectin4) [Nectin4 peptide 203 (AVTSEFHLV)] |  |  | 0.533 | 400 |  | 0 | 64 |  | 48 | 3.5
17 | DQNLWHIGR (Synthetic nonapeptide of human nectin4; the range counts on nectin4) [Nectin4 peptide 255 (DQNLWHIGR)] |  |  | 0.539 | 500 |  | 0 | 62 |  | 6 | 5.4
18 | VLPDVFIRC (Control peptide from the literature, tested here; also called GnTV peptide) [reference peptide 520 (GnTV), VLPDVFIRC] | 1 |  |  |  |  |  |  |  |  | 
19 | GVIAALLFC (Synthetic nonapeptide of human nectin4; the range counts on nectin4) [Nectin4 peptide 354 (GVIAALLFC)] |  |  | 0.845 | 90 |  | 0 | 61 |  | 10 | 6.2
20 | HILHVSFLA (Synthetic nonapeptide of human nectin4; the number is the start position in nectin4 (the range counts on nectin4)) [Nectin4 peptide 238 (HILHVSFLA)] | 7 |  | 1.43 | 60 |  | 66 | 87 |  | 37 | 6.7
21 | RSYSTLTTV (Synthetic nonapeptide of human nectin4; the range counts on nectin4) [Nectin4 peptide 443 (RSYSTLTTV)] |  |  | 0.521 | 300 |  | 0 | 68 |  | 37 | 2.4
22 | GTSDVVTVV (Synthetic nonapeptide of human nectin4; the range counts on nectin4) [Nectin4 peptide 35 (GTSDVVTVV)] |  |  | 0.539 | 300 |  | 0 | 63 |  | 60 | 2.9
23 | AMLKCLSEG (Synthetic nonapeptide of human nectin4; the range counts on nectin4) [Nectin4 peptide 266 (AMLKCLSEG)] |  |  | 0.667 | 700 |  | 39 | 74 |  | 31 | 6.8
24 | VVVGVIAAL (Synthetic nonapeptide of human nectin4; the range counts on nectin4) [Nectin4 peptide 351 (VVVGVIAAL)] | 5 |  | 0.784 | 30 |  | 50 | 58 | > 50 % of positive control | 82 | 3.4
25 | NLSASVATV (Control peptide from the literature, tested here) [reference peptide 503 (PR3; Proteinase3), NLSASVATV] | 9 |  |  |  |  |  |  |  |  | 
26 | SMNGQPLTC (Synthetic nonapeptide of human nectin4; the range counts on nectin4) [Nectin4 peptide 215 (SMNGQPLTC)] |  |  | 0.689 | 700 |  | 0 | 81 |  | 21 | 6.8
27 | ALLFCLLVV (Synthetic nonapeptide of human nectin4; the range counts on nectin4) [Nectin4 peptide 358 (ALLFCLLVV)] |  |  | 0.71 | 200 |  | 26 | 53 |  | 26 | 6.1
